In patent US20230406885A1, “CYCLIC PEPTIDES FOR TRAPPING INTERLEUKIN-1 BETA” (MERCK SHARP & DOHME LLC, priority 2022, published 2023):
*1 amine or outer side, *2 acyl side, *3 side chain or, on linkers, in order; H or OH if unused. [ ]: non-standard residue; d: D form. 3AzaPhe4AcPip = (S)-3-(6-(4-acetylpiperazin-1-yl)pyridin-3-yl)-2-aminopropanoic acid, CC(=O)N1CCN(c2ccc(C[C@H](N[*:1])C(=O)[*:2])cn2)CC1; Pro(trans-4-NH2) = O=C([C@@H]1C[C@@H](N[*:3])CN1[*:1])[*:2]; Trp(βS-Me,4-F) = C[C@@H](c1c[nH]c2cccc(F)c12)[C@H](N)C(=O)O; Bip(4'-COOH) = N[C@@H](Cc1ccc(-c2ccc(C(=O)O)cc2)cc1)C(=O)O; Phe(3-CH2NH2) = O=C([C@H](Cc1cccc(CN[*:3])c1)N[*:1])[*:2]; mBip = (S)-2-amino-3-(3-phenylphenyl)propanoic acid; Phe(3-allyloxy) = C=CCOc1cccc(C[C@H](N)C(=O)O)c1; Phe(4-COOH) = N[C@@H](Cc1ccc(C(=O)O)cc1)C(=O)O; hTyr = N[C@@H](CCc1ccc(O)cc1)C(=O)O; dDab = NCC[C@@H](N)C(=O)O; dNMeA = CN[C@H](C)C(=O)O; Nva = CCC[C@H](N)C(=O)O

B1: SEQ ID NO: 71 (peptide)
peptide: cyclo([Bip(4'-COOH)]W[Phe(4-COOH)]G[Pro(trans-4-NH2)][Trp(βS-Me,4-F)]D[dNMeA]G[Bip(4'-COOH)]K[Nva][dA][hTyr])
SMILES: CCC[C@@H]1NC(=O)[C@H](CCCCN)NC(=O)[C@H](Cc2ccc(-c3ccc(C(=O)O)cc3)cc2)NC(=O)CNC(=O)[C@@H](C)N(C)C(=O)[C@H](CC(=O)O)NC(=O)[C@H]([C@@H](C)c2c[nH]c3cccc(F)c23)NC(=O)[C@@H]2C[C@@H](N)CN2C(=O)CNC(=O)[C@H](Cc2ccc(C(=O)O)cc2)NC(=O)[C@H](Cc2c[nH]c3ccccc23)NC(=O)[C@H](Cc2ccc(-c3ccc(C(=O)O)cc3)cc2)NC(=O)[C@H](CCc2ccc(O)cc2)NC(=O)[C@@H](C)NC1=O
B2: SEQ ID NO: 72 (peptide)
peptide: cyclo([Bip(4'-COOH)]W[Phe(4-COOH)]G[Pro(trans-4-NH2)][Trp(βS-Me,4-F)]D[dNMeA]G[Bip(4'-COOH)]KS[dA][hTyr])
SMILES: C[C@@H]1C(=O)NCC(=O)N[C@@H](Cc2ccc(-c3ccc(C(=O)O)cc3)cc2)C(=O)N[C@@H](CCCCN)C(=O)N[C@@H](CO)C(=O)N[C@H](C)C(=O)N[C@@H](CCc2ccc(O)cc2)C(=O)N[C@@H](Cc2ccc(-c3ccc(C(=O)O)cc3)cc2)C(=O)N[C@@H](Cc2c[nH]c3ccccc23)C(=O)N[C@@H](Cc2ccc(C(=O)O)cc2)C(=O)NCC(=O)N2C[C@H](N)C[C@H]2C(=O)N[C@@H]([C@@H](C)c2c[nH]c3cccc(F)c23)C(=O)N[C@@H](CC(=O)O)C(=O)N1C
B3: SEQ ID NO: 77 (peptide)
peptide: cyclo([Bip(4'-COOH)]W[Phe(4-COOH)]G[Pro(trans-4-NH2)][Trp(βS-Me,4-F)]D[dNMeA]G[Bip(4'-COOH)]WG[dDab][hTyr])
SMILES: C[C@@H]1C(=O)NCC(=O)N[C@@H](Cc2ccc(-c3ccc(C(=O)O)cc3)cc2)C(=O)N[C@@H](Cc2c[nH]c3ccccc23)C(=O)NCC(=O)N[C@H](CCN)C(=O)N[C@@H](CCc2ccc(O)cc2)C(=O)N[C@@H](Cc2ccc(-c3ccc(C(=O)O)cc3)cc2)C(=O)N[C@@H](Cc2c[nH]c3ccccc23)C(=O)N[C@@H](Cc2ccc(C(=O)O)cc2)C(=O)NCC(=O)N2C[C@H](N)C[C@H]2C(=O)N[C@@H]([C@@H](C)c2c[nH]c3cccc(F)c23)C(=O)N[C@@H](CC(=O)O)C(=O)N1C
B4: SEQ ID NO: 76 (peptide)
peptide: cyclo([Bip(4'-COOH)]W[Phe(4-COOH)]G[Pro(trans-4-NH2)][Trp(βS-Me,4-F)]D[dNMeA]G[Bip(4'-COOH)][Phe(3-allyloxy)]L[dA][hTyr])
SMILES: C=CCOc1cccc(C[C@@H]2NC(=O)[C@H](Cc3ccc(-c4ccc(C(=O)O)cc4)cc3)NC(=O)CNC(=O)[C@@H](C)N(C)C(=O)[C@H](CC(=O)O)NC(=O)[C@H]([C@@H](C)c3c[nH]c4cccc(F)c34)NC(=O)[C@@H]3C[C@@H](N)CN3C(=O)CNC(=O)[C@H](Cc3ccc(C(=O)O)cc3)NC(=O)[C@H](Cc3c[nH]c4ccccc34)NC(=O)[C@H](Cc3ccc(-c4ccc(C(=O)O)cc4)cc3)NC(=O)[C@H](CCc3ccc(O)cc3)NC(=O)[C@@H](C)NC(=O)[C@H](CC(C)C)NC2=O)c1
B5: SEQ ID NO: 79 (peptide)
peptide: cyclo([Bip(4'-COOH)]W[Phe(4-COOH)]G[Pro(trans-4-NH2)][Trp(βS-Me,4-F)]D[dNMeA]G[Bip(4'-COOH)]W[Nva][dA]A)
SMILES: CCC[C@@H]1NC(=O)[C@H](Cc2c[nH]c3ccccc23)NC(=O)[C@H](Cc2ccc(-c3ccc(C(=O)O)cc3)cc2)NC(=O)CNC(=O)[C@@H](C)N(C)C(=O)[C@H](CC(=O)O)NC(=O)[C@H]([C@@H](C)c2c[nH]c3cccc(F)c23)NC(=O)[C@@H]2C[C@@H](N)CN2C(=O)CNC(=O)[C@H](Cc2ccc(C(=O)O)cc2)NC(=O)[C@H](Cc2c[nH]c3ccccc23)NC(=O)[C@H](Cc2ccc(-c3ccc(C(=O)O)cc3)cc2)NC(=O)[C@H](C)NC(=O)[C@@H](C)NC1=O
B6: SEQ ID NO: 73 (peptide)
peptide: cyclo([Bip(4'-COOH)]W[Phe(4-COOH)]G[Pro(trans-4-NH2)][Trp(βS-Me,4-F)]D[dNMeA]G[Bip(4'-COOH)][Phe(3-CH2NH2)]L[dA][hTyr])
SMILES: CC(C)C[C@@H]1NC(=O)[C@H](Cc2cccc(CN)c2)NC(=O)[C@H](Cc2ccc(-c3ccc(C(=O)O)cc3)cc2)NC(=O)CNC(=O)[C@@H](C)N(C)C(=O)[C@H](CC(=O)O)NC(=O)[C@H]([C@@H](C)c2c[nH]c3cccc(F)c23)NC(=O)[C@@H]2C[C@@H](N)CN2C(=O)CNC(=O)[C@H](Cc2ccc(C(=O)O)cc2)NC(=O)[C@H](Cc2c[nH]c3ccccc23)NC(=O)[C@H](Cc2ccc(-c3ccc(C(=O)O)cc3)cc2)NC(=O)[C@H](CCc2ccc(O)cc2)NC(=O)[C@@H](C)NC1=O
B7: SEQ ID NO: 78 (peptide)
peptide: cyclo([Bip(4'-COOH)]W[Phe(4-COOH)]G[Pro(trans-4-NH2)][Trp(βS-Me,4-F)]D[dNMeA]G[Bip(4'-COOH)]WL[dA][hTyr])
SMILES: CC(C)C[C@@H]1NC(=O)[C@H](Cc2c[nH]c3ccccc23)NC(=O)[C@H](Cc2ccc(-c3ccc(C(=O)O)cc3)cc2)NC(=O)CNC(=O)[C@@H](C)N(C)C(=O)[C@H](CC(=O)O)NC(=O)[C@H]([C@@H](C)c2c[nH]c3cccc(F)c23)NC(=O)[C@@H]2C[C@@H](N)CN2C(=O)CNC(=O)[C@H](Cc2ccc(C(=O)O)cc2)NC(=O)[C@H](Cc2c[nH]c3ccccc23)NC(=O)[C@H](Cc2ccc(-c3ccc(C(=O)O)cc3)cc2)NC(=O)[C@H](CCc2ccc(O)cc2)NC(=O)[C@@H](C)NC1=O
B8: SEQ ID NO: 80 (peptide)
peptide: cyclo([Bip(4'-COOH)]W[Phe(4-COOH)]G[Pro(trans-4-NH2)][Trp(βS-Me,4-F)]N[dNMeA]G[Bip(4'-COOH)]KL[dA][hTyr])
SMILES: CC(C)C[C@@H]1NC(=O)[C@H](CCCCN)NC(=O)[C@H](Cc2ccc(-c3ccc(C(=O)O)cc3)cc2)NC(=O)CNC(=O)[C@@H](C)N(C)C(=O)[C@H](CC(N)=O)NC(=O)[C@H]([C@@H](C)c2c[nH]c3cccc(F)c23)NC(=O)[C@@H]2C[C@@H](N)CN2C(=O)CNC(=O)[C@H](Cc2ccc(C(=O)O)cc2)NC(=O)[C@H](Cc2c[nH]c3ccccc23)NC(=O)[C@H](Cc2ccc(-c3ccc(C(=O)O)cc3)cc2)NC(=O)[C@H](CCc2ccc(O)cc2)NC(=O)[C@@H](C)NC1=O
B9: SEQ ID NO: 81 (peptide)
peptide: cyclo([Bip(4'-COOH)]W[Phe(4-COOH)]G[Pro(trans-4-NH2)][Trp(βS-Me,4-F)]N[dNMeA]G[Bip(4'-COOH)]KL[dDab][hTyr])
SMILES: CC(C)C[C@@H]1NC(=O)[C@H](CCCCN)NC(=O)[C@H](Cc2ccc(-c3ccc(C(=O)O)cc3)cc2)NC(=O)CNC(=O)[C@@H](C)N(C)C(=O)[C@H](CC(N)=O)NC(=O)[C@H]([C@@H](C)c2c[nH]c3cccc(F)c23)NC(=O)[C@@H]2C[C@@H](N)CN2C(=O)CNC(=O)[C@H](Cc2ccc(C(=O)O)cc2)NC(=O)[C@H](Cc2c[nH]c3ccccc23)NC(=O)[C@H](Cc2ccc(-c3ccc(C(=O)O)cc3)cc2)NC(=O)[C@H](CCc2ccc(O)cc2)NC(=O)[C@@H](CCN)NC1=O
B10: SEQ ID NO: 8 (peptide)
peptide: cyclo([3AzaPhe4AcPip]W[Phe(4-COOH)]G[Pro(trans-4-NH2)][Trp(βS-Me,4-F)]D[dNMeA]G[Bip(4'-COOH)]WG[dDab][hTyr])
SMILES: CC(=O)N1CCN(c2ccc(C[C@@H]3NC(=O)[C@H](CCc4ccc(O)cc4)NC(=O)[C@@H](CCN)NC(=O)CNC(=O)[C@H](Cc4c[nH]c5ccccc45)NC(=O)[C@H](Cc4ccc(-c5ccc(C(=O)O)cc5)cc4)NC(=O)CNC(=O)[C@@H](C)N(C)C(=O)[C@H](CC(=O)O)NC(=O)[C@H]([C@@H](C)c4c[nH]c5cccc(F)c45)NC(=O)[C@@H]4C[C@@H](N)CN4C(=O)CNC(=O)[C@H](Cc4ccc(C(=O)O)cc4)NC(=O)[C@H](Cc4c[nH]c5ccccc45)NC3=O)cn2)CC1
B11: SEQ ID NO: 74 (peptide)
peptide: cyclo([Bip(4'-COOH)]W[Phe(4-COOH)]G[Pro(trans-4-NH2)][Trp(βS-Me,4-F)]D[dNMeA]G[Bip(4'-COOH)][Phe(3-CH2NH2)]S[dA][hTyr])
SMILES: C[C@@H]1C(=O)NCC(=O)N[C@@H](Cc2ccc(-c3ccc(C(=O)O)cc3)cc2)C(=O)N[C@@H](Cc2cccc(CN)c2)C(=O)N[C@@H](CO)C(=O)N[C@H](C)C(=O)N[C@@H](CCc2ccc(O)cc2)C(=O)N[C@@H](Cc2ccc(-c3ccc(C(=O)O)cc3)cc2)C(=O)N[C@@H](Cc2c[nH]c3ccccc23)C(=O)N[C@@H](Cc2ccc(C(=O)O)cc2)C(=O)NCC(=O)N2C[C@H](N)C[C@H]2C(=O)N[C@@H]([C@@H](C)c2c[nH]c3cccc(F)c23)C(=O)N[C@@H](CC(=O)O)C(=O)N1C
B12: SEQ ID NO: 70 (peptide)
peptide: cyclo([Bip(4'-COOH)]W[Phe(4-COOH)]G[Pro(trans-4-NH2)][Trp(βS-Me,4-F)]D[dNMeA]G[Bip(4'-COOH)]KLG[hTyr])
SMILES: CC(C)C[C@@H]1NC(=O)[C@H](CCCCN)NC(=O)[C@H](Cc2ccc(-c3ccc(C(=O)O)cc3)cc2)NC(=O)CNC(=O)[C@@H](C)N(C)C(=O)[C@H](CC(=O)O)NC(=O)[C@H]([C@@H](C)c2c[nH]c3cccc(F)c23)NC(=O)[C@@H]2C[C@@H](N)CN2C(=O)CNC(=O)[C@H](Cc2ccc(C(=O)O)cc2)NC(=O)[C@H](Cc2c[nH]c3ccccc23)NC(=O)[C@H](Cc2ccc(-c3ccc(C(=O)O)cc3)cc2)NC(=O)[C@H](CCc2ccc(O)cc2)NC(=O)CNC1=O

Each binder was assayed against Recombinant human IL-1β (BioLegend 579404) (human, UniProt P01584 117-269) (assay: cell-based or functional assay).

Binder	MRC5 IC50
B1	0.0926 nM
B2	0.107 nM
B3	0.0601 nM
B4	0.122 nM
B5	0.189 nM
B6	0.0509 nM
B7	0.0732 nM
B8	0.291 nM
cyclo([Bip(4'-COOH)]W[Phe(4-COOH)]G[Pro(trans-4-NH2)][Trp(βS-Me,4-F)]D[dNMeA]G[Bip(4'-COOH)][mBip]L[dA][hTyr]) [SEQ ID NO: 75]	0.165 nM
B9	0.255 nM
B10	0.14 nM
B11	0.296 nM
B12	0.0973 nM
